According to US20210275657A1, “NEOANTIGENS AND USES THEREOF” (BioNTech US Inc., priority 2018, published 2021):

Assays:
Settings in all cases: remark: other sources report otherwise
[1] = biological target: HLA-A01:01 (human); assay: peptide-HLA stability, Example 41
[2] = biological target: HLA-A01:01 (human); assay: peptide-HLA affinity, Example 41
[3] = biological target: HLA-A02:01 (human); assay: peptide-HLA stability, Example 41
[4] = biological target: HLA-A02:01 (human); assay: peptide-HLA affinity, Example 41
[5] = biological target: HLA-A02:01 (human); assay: peptide-HLA stability, Example 9
[6] = biological target: HLA-A02:01 (human); assay: peptide-HLA affinity, Example 9
[7] = biological target: HLA-B07:02 (human); assay: peptide-HLA stability, Example 41
[8] = biological target: HLA-B08:01 (human); assay: peptide-HLA stability, Example 41
[9] = biological target: HLA-B07:02 (human); assay: peptide-HLA affinity, Example 41
[10] = biological target: HLA-A02:01 (human); assay: peptide-HLA stability, Example 36
[11] = biological target: HLA-A02:01 (human); assay: peptide-HLA affinity, Example 36
[12] = biological target: HLA-A24:02 (human); assay: peptide-HLA stability, Example 9
[13] = biological target: HLA-B08:01 (human); assay: peptide-HLA stability, Example 9
[14] = biological target: HLA-A02:01 (human); assay: pMHC-I dissociation, 125I-b2m, 37C; experiment 1
[15] = biological target: HLA-B08:01 (human); assay: pMHC-I dissociation, 125I-b2m, 37C; experiment 1
[16] = biological target: HLA-A02:01 (human); assay: pMHC-I dissociation, 125I-b2m, 37C; average of 2
[17] = biological target: HLA-B08:01 (human); assay: pMHC-I dissociation, 125I-b2m, 37C; average of 2
[18] = biological target: HLA-A24:02 (human); assay: peptide-HLA affinity, Example 9
[19] = biological target: HLA-A02:01 (human); assay: pMHC-I dissociation, 125I-b2m, 37C; experiment 2
[20] = biological target: HLA-B08:01 (human); assay: pMHC-I dissociation, 125I-b2m, 37C; experiment 2
[21] = biological target: HLA-B07:02 (human); assay: peptide-HLA stability, Example 36
[22] = biological target: HLA-B08:01 (human); assay: peptide-HLA stability, Example 36
[23] = biological target: HLA-B07:02 (human); assay: peptide-HLA affinity, Example 36
[24] = biological target: HLA-B08:01 (human); assay: peptide-HLA affinity, Example 36

B1: … (peptide)
peptide: LTSTVQLIM
- Stability (1/2 hr) [1]: 0.104 h
- Affinity [2]: 2.89 µM

B2: … (peptide)
peptide: MQLMPFGCLL
- Stability (1/2 hr) [3]: 0.381 h
- Affinity [4]: 16.3 nM

B3: … (peptide)
peptide: ALQPLQPHA
- Observed MHC stability [5]: 1.5 h
- Observed MHC affinity [6]: 604 nM

B4: … (peptide)
peptide: MQLMPFGCL
- Stability (1/2 hr) [3]: 0.368 h
- Stability (1/2 hr) [7]: 0 h
- Stability (1/2 hr) [8]: 0 h
- Affinity [4]: 116 nM
- Affinity [9]: 1590 nM

B5: … (peptide)
peptide: STVQLIMQL
- Stability (1/2 hr) [3]: 0 h
- Affinity [4]: 7260 nM

B6: … (peptide)
peptide: CLTSTVQLIM
- Stability (1/2 hr) [3]: 0 h
- Stability (1/2 hr) [1]: 0 h
- Affinity [4]: 537 nM
- Affinity [2]: 8.28 µM

B7: … (peptide)
peptide: IMQLMPFGCL
- Stability (1/2 hr) [3]: 0.516 h
- Stability (1/2 hr) [8]: 0 h
- Affinity [4]: 653 nM

B8: … (peptide)
peptide: YMANGSLLN
- Stability (1/2 hr) [10]: 0 h
- Affinity [11]: 4000 nM

B9: … (peptide)
peptide: MANGSLLNYL
- Stability (1/2 hr) [10]: 0 h
- Affinity [11]: 1010 nM

B10: … (peptide)
peptide: LIMQLMPFG
- Stability (1/2 hr) [3]: 0 h
- Affinity [4]: 3340 nM

B11: … (peptide)
peptide: YMFLKAESKI
- Observed MHC stability [5]: 0.6 h
- Observed MHC stability [12]: 1.2 h
- Observed MHC stability [13]: 0.4 h
- half-life [14]: 36 min
- half-life [15]: 24 min
- half-life [16]: 36 min
- half-life [17]: 24 min
- Observed MHC affinity [18]: 7 µM
- half-life [19]: 36 min
- half-life [20]: 30 min

B12: … (peptide)
peptide: IMQLMPFGC
- Stability (1/2 hr) [3]: 0.37 h
- Affinity [4]: 1210 nM

B13: … (peptide)
peptide: SLLNYLREM
- Stability (1/2 hr) [10]: 3.04 h
- Stability (1/2 hr) [21]: 0 h
- Stability (1/2 hr) [22]: 0 h
- Affinity [11]: 67.7 nM
- Affinity [23]: 866 nM
- Affinity [24]: 960 nM
